Measurements as given in patent US20240182536A1 (MURAL ONCOLOGY, published 2024).

T1: IL-18 receptor (IL-18Rα and IL-18Rβ) (UniProt Q13478 19-541; O95256 20-599, limits assumed)
T1 sequence (looked up) 1: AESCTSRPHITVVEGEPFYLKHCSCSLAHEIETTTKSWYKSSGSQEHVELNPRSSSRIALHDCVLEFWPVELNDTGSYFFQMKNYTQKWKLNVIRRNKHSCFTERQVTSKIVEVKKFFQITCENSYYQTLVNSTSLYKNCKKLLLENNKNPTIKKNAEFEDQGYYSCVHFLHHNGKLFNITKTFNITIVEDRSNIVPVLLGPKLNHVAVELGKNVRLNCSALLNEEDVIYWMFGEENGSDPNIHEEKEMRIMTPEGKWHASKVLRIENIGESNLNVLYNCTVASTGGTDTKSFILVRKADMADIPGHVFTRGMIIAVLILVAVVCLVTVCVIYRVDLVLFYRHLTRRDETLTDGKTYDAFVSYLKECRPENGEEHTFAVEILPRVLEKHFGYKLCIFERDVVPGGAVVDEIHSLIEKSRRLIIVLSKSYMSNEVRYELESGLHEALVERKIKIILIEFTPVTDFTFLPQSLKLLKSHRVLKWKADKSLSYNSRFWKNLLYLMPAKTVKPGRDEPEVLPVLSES
T1 sequence (looked up) 2: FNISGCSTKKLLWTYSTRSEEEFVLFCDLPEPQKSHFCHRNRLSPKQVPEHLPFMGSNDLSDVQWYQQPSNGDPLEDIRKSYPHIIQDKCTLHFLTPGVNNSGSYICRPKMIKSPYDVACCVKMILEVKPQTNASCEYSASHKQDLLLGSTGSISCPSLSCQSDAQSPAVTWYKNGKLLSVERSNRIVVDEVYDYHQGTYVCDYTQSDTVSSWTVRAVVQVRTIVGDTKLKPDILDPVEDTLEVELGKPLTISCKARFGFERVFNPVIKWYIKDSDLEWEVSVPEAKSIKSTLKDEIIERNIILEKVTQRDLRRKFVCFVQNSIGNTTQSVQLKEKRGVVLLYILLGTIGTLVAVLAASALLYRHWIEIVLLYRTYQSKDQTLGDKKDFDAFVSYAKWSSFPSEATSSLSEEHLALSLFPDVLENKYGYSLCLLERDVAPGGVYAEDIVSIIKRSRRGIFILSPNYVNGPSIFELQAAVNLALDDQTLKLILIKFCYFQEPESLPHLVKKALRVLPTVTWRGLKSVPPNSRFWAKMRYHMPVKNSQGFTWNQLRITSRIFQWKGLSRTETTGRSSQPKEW

T2: interleukin 18 binding protein (IL-18BP) (UniProt O95998 31-194)
T2 sequence (looked up): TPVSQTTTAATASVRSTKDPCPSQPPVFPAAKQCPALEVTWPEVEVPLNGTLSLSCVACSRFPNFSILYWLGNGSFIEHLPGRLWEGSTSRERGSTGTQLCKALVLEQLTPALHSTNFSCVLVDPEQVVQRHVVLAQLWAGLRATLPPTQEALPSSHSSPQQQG


Tests used:
[1] = target: T1, IL-18 receptor (IL-18Rα and IL-18Rβ); test: cell-based or functional assay
[2] = target: T2, interleukin 18 binding protein (IL-18BP); test: cell-based or functional assay

Row | Binder | EC50 (pM) - BP, HEK-blue re-screening [1] [pM] | EC50 (pM) + 100 nM BP, HEK-blue re-screening [2] [pM] | Ratio (HEK-blue EC50, + 100 nM BP against - BP) [2]
1 | IL-18 variant G3Q, E6S, S55V, T63A, N91T (ligand) YFQKLSSKLSVIRNLNDQVLFIDQGNRPLFEDMTDSDMRDNAPRTIFIISMYKDVQPRGMAVAISVKSEKISTLSSENKIISFKEMNPPDTIKDTKSDIIFFQRSVPGHDNKMQFESSSYEGYFLASEKERDLFKLILKKEDELGDRSIMFTVQNED | 0.2 | 35.9 | 180
2 | IL-18 variant G3Q, E6K, D54S, S55P, T63S, N91S, R104Q (ligand) YFQKLKSKLSVIRNLNDQVLFIDQGNRPLFEDMTDSDMRDNAPRTIFIISMYKSPQPRGMAVSISVKSEKISTLSSENKIISFKEMNPPDSIKDTKSDIIFFQQSVPGHDNKMQFESSSYEGYFLASEKERDLFKLILKKEDELGDRSIMFTVQNED | 0.27 | 7.45 | 27.6
3 | IL-18 variant G3Y, E6N, N91Y, R104S (ligand) YFYKLNSKLSVIRNLNDQVLFIDQGNRPLFEDMTDSDMRDNAPRTIFIISMYKDSQPRGMAVTISVKSEKISTLSSENKIISFKEMNPPDYIKDTKSDIIFFQSSVPGHDNKMQFESSSYEGYFLASEKERDLFKLILKKEDELGDRSIMFTVQNED | 0.09 | 2.89 | 32.1
4 | IL-18 variant G3E, E6G, N91M, R104A (ligand) YFEKLGSKLSVIRNLNDQVLFIDQGNRPLFEDMTDSDMRDNAPRTIFIISMYKDSQPRGMAVTISVKSEKISTLSSENKIISFKEMNPPDMIKDTKSDIIFFQASVPGHDNKMQFESSSYEGYFLASEKERDLFKLILKKEDELGDRSIMFTVQNED | 0.17 | 3.49 | 20.5
5 | IL-18 variant G3S, E6G, D54V, S55K, T63S, N91Y, R104T (ligand) YFSKLGSKLSVIRNLNDQVLFIDQGNRPLFEDMTDSDMRDNAPRTIFIISMYKVKQPRGMAVSISVKSEKISTLSSENKIISFKEMNPPDYIKDTKSDIIFFQTSVPGHDNKMQFESSSYEGYFLASEKERDLFKLILKKEDELGDRSIMFTVQNED | 0.21 | 4.87 | 23.2
6 | IL-18 variant G3L, E6Q, T63S, N91L, R104T (ligand) YFLKLQSKLSVIRNLNDQVLFIDQGNRPLFEDMTDSDMRDNAPRTIFIISMYKDSQPRGMAVSISVKSEKISTLSSENKIISFKEMNPPDLIKDTKSDIIFFQTSVPGHDNKMQFESSSYEGYFLASEKERDLFKLILKKEDELGDRSIMFTVQNED | 0.03 | 1.67 | 55.7
7 | IL-18 variant G3E, E6H, R27S, D54A, S55T, T63S, N91F, R104S (ligand) YFEKLHSKLSVIRNLNDQVLFIDQGNSPLFEDMTDSDMRDNAPRTIFIISMYKATQPRGMAVSISVKSEKISTLSSENKIISFKEMNPPDFIKDTKSDIIFFQSSVPGHDNKMQFESSSYEGYFLASEKERDLFKLILKKEDELGDRSIMFTVQNED | 0.34 | 3.01 | 8.9
8 | IL-18 variant E6G, D54A, S55K, T63S, N91K, Q114R (ligand) YFGKLGSKLSVIRNLNDQVLFIDQGNRPLFEDMTDSDMRDNAPRTIFIISMYKAKQPRGMAVSISVKSEKISTLSSENKIISFKEMNPPDKIKDTKSDIIFFQRSVPGHDNKMRFESSSYEGYFLASEKERDLFKLILKKEDELGDRSIMFTVQNED | 0.1 | 2.17 | 21.7
9 | IL-18 variant G3I, E6Q, N91M, R104Y (ligand) YFIKLQSKLSVIRNLNDQVLFIDQGNRPLFEDMTDSDMRDNAPRTIFIISMYKDSQPRGMAVTISVKSEKISTLSSENKIISFKEMNPPDMIKDTKSDIIFFQYSVPGHDNKMQFESSSYEGYFLASEKERDLFKLILKKEDELGDRSIMFTVQNED | 0.07 | 3.77 | 53.9
10 | IL-18 variant G3L, E6Q, D54Y, S55P, T63S, N91S, R104Q (ligand) YFLKLQSKLSVIRNLNDQVLFIDQGNRPLFEDMTDSDMRDNAPRTIFIISMYKYPQPRGMAVSISVKSEKISTLSSENKIISFKEMNPPDSIKDTKSDIIFFQQSVPGHDNKMQFESSSYEGYFLASEKERDLFKLILKKEDELGDRSIMFTVQNED | 1.35 | 54.7 | 40.5
11 | IL-18 variant G3D, E6Q, R27S, K53R, D54A, S55R, T63S, N91Q (ligand) YFDKLQSKLSVIRNLNDQVLFIDQGNSPLFEDMTDSDMRDNAPRTIFIISMYRARQPRGMAVSISVKSEKISTLSSENKIISFKEMNPPDQIKDTKSDIIFFQRSVPGHDNKMQFESSSYEGYFLASEKERDLFKLILKKEDELGDRSIMFTVQNED | 4.22 | 25.7 | 6.1
12 | IL-18 variant E6D, D54T, S55W, T63S, N91S, R104T (ligand) YFGKLDSKLSVIRNLNDQVLFIDQGNRPLFEDMTDSDMRDNAPRTIFIISMYKTWQPRGMAVSISVKSEKISTLSSENKIISFKEMNPPDSIKDTKSDIIFFQTSVPGHDNKMQFESSSYEGYFLASEKERDLFKLILKKEDELGDRSIMFTVQNED | 3.42 | 62.8 | 18.4
13 | IL-18 variant G3Q, E6N, D54Y, S55P, T63S, N91S, R104H (ligand) YFQKLNSKLSVIRNLNDQVLFIDQGNRPLFEDMTDSDMRDNAPRTIFIISMYKYPQPRGMAVSISVKSEKISTLSSENKIISFKEMNPPDSIKDTKSDIIFFQHSVPGHDNKMQFESSSYEGYFLASEKERDLFKLILKKEDELGDRSIMFTVQNED | 9.63 | 34.7 | 3.6
14 | IL-18 variant G3Q, E6N (ligand) YFQKLNSKLSVIRNLNDQVLFIDQGNRPLFEDMTDSDMRDNAPRTIFIISMYKDSQPRGMAVTISVKSEKISTLSSENKIISFKEMNPPDNIKDTKSDIIFFQRSVPGHDNKMQFESSSYEGYFLASEKERDLFKLILKKEDELGDRSIMFTVQNED | 0.05 | 8.61 | 172
15 | IL-18 variant G3Q, E6H, D54N, S55I, T63S, N91V (ligand) YFQKLHSKLSVIRNLNDQVLFIDQGNRPLFEDMTDSDMRDNAPRTIFIISMYKNIQPRGMAVSISVKSEKISTLSSENKIISFKEMNPPDVIKDTKSDIIFFQRSVPGHDNKMQFESSSYEGYFLASEKERDLFKLILKKEDELGDRSIMFTVQNED | 0.31 | 5.23 | 16.9
16 | IL-18 variant G3I, E6D, D54A, S55F, N91Y, R104H (ligand) YFIKLDSKLSVIRNLNDQVLFIDQGNRPLFEDMTDSDMRDNAPRTIFIISMYKAFQPRGMAVTISVKSEKISTLSSENKIISFKEMNPPDYIKDTKSDIIFFQHSVPGHDNKMQFESSSYEGYFLASEKERDLFKLILKKEDELGDRSIMFTVQNED | 0.45 | 3.41 | 7.6
